Assay results as given in US20040138113A1, “Use of corticotroph-derived glycoprotein hormone to treat inflammation and potentiate glucocorticoid action” (priority 2002, published 2004).

Tests used:
[1] = biological target: thyroid-stimulating hormone (TSH) receptor (human) (UniProt P16473); assay: flow cytometry, human PBMC gated on CD3+ T cells; CGH-biotin 10 ug/ml then streptavidin-PE; background without CGH-biotin 4.3
[2] = biological target: thyroid-stimulating hormone (TSH) receptor (human) (UniProt P16473); assay: flow cytometry, human PBMC gated on CD19+ B cells; CGH-biotin 10 ug/ml then streptavidin-PE; background without CGH-biotin 3.8
[3] = biological target: thyroid-stimulating hormone (TSH) receptor (human) (UniProt P16473); assay: flow cytometry, human PBMC gated on CD56+ NK cells; CGH-biotin 10 ug/ml then streptavidin-PE; background without CGH-biotin 3.6
[4] = biological target: thyroid-stimulating hormone (TSH) receptor (human) (UniProt P16473); assay: flow cytometry, human PBMC gated on CD14+ monocytes; CGH-biotin 10 ug/ml then streptavidin-PE; background without CGH-biotin 9.1
[5] = biological target: thyroid-stimulating hormone (TSH) receptor (human) (UniProt P16473); assay: flow cytometry, human PBMC gated on CD4+ CD45RA+ naive CD4+ T cells; CGH-biotin 10 ug/ml then streptavidin-PE; background without CGH-biotin 3.5
[6] = biological target: thyroid-stimulating hormone (TSH) receptor (human) (UniProt P16473); assay: flow cytometry, human PBMC gated on CD4+ CD45RA- memory CD4+ T cells; CGH-biotin 10 ug/ml then streptavidin-PE; background without CGH-biotin 3.4
[7] = biological target: thyroid-stimulating hormone (TSH) receptor (human), P16473; assay: cell-based or functional assay
Sequence of thyroid-stimulating hormone (TSH) receptor (human), P16473 (P16473 21-764): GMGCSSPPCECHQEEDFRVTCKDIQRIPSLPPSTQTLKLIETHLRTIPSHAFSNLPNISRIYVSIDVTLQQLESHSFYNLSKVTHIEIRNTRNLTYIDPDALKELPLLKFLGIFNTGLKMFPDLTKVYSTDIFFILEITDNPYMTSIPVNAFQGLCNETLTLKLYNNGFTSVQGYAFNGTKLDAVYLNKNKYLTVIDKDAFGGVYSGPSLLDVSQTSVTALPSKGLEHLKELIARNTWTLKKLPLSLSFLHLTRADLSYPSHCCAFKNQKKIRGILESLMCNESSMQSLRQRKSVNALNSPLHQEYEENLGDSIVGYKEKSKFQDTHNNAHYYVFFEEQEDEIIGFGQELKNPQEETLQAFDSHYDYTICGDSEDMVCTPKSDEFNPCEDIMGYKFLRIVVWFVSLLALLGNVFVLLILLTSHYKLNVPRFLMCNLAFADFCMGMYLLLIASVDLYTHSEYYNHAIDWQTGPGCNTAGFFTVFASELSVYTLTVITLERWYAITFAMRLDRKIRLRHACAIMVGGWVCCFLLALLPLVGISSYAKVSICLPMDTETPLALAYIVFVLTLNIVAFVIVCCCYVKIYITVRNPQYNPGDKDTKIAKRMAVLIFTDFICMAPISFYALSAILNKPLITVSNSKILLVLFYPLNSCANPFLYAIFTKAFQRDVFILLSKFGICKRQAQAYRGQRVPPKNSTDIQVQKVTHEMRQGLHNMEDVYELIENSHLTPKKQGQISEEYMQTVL

[8] = biological target: T1, glycoprotein hormone beta 5 (GPHB5) (human, UniProt Q86YW7 25-130, one N-linked glycosylation (site not stated)); assay: co-expression in CHO cells (Example 5)
T1 construct: Subunit co-expressed with GPHA2 in CHO cells; also called beta subunit of CGH
T1 sequence: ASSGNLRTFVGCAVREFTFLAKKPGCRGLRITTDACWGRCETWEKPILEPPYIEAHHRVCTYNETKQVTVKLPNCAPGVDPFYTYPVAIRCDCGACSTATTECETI

[9] = test system: NCI-H295R; assay: CRE-luciferase reporter assay of cAMP-mediated gene induction in adrenal cortex cells; type: cell-based, human; settings: purified CGH heterodimer
Excerpt: Summary: A human adrenal cortex cell line, NCI-H295R, was used to study signal transduction of CGH. NCI-H295R was transduced with recombinant adenovirus containing a reporter construct, a firefly luciferase gene under the control of cAMP response element (CRE) enhancer sequences. This assay system detects cAMP-mediated gene induction downstream of activation of Gs-coupled GPCR's (G-protein coupled receptors). […] Typically, CGH elicited a maximal response of 15-40-fold luciferase induction above control media.
NCI-H295R cells were obtained from the ATCC (CRL-2128, Manassas, Va.) and cultured in growth medium as follows: 1:1 mixture of Dulbecco's modified Eagle's medium and Ham's F12 medium with L-glutamine (D-MEM/F-12; GIBCO, cat.# 11320-033) containing 25 mM HEPES buffer (GIBCO, Invitrogen, Carlsbad, Calif., cat.# 15630-080), 1 mM sodium pyruvate (GIBCO, cat.# 11360-070), 1% ITS+1 media supplement (Sigma St. Louis, Mo. cat# 12521) and 2.5% Nu-Serum I (BD Biosciences, Lexington, Ky. cat.#355100). Cells were cultured at 37° C. in a 5% CO2 humidified incubator. […]
Promega's Luciferase Assay System (Promega, Madison, Wis., cat. # E1500) was used to process the treated cells. […] Luciferase activity was measured on a microplate luminometer (PerkinElmer Life Sciences, Inc., model LB 96V2R) following automated injection of luciferase assay substrate.

[10] = biological target: T2, TSHR (Homo sapiens, UniProt P16473); assay: Release of free fatty acids (FFA) from adipose cells; type: cell-based
T2 construct: In adipose cells, sub-nanomolar levels of CGH stimulate release of free fatty acids (FFA); endogenous in cells
T2 sequence (P16473 21-764, species assumed): as the sequence (P16473 21-764) above

[11] = test system: adrenal cortex; assay: Adenoviral overexpression of CGH in mice, adrenal gland histopathology; type: in vivo, C57BL6 mice; settings: GPHA2- and GPHB5-expressing adenovirus by tail vein, day 20, all eight mice
Excerpt: Summary: Mice were exposed to CGH through infection with adenovirus particles expressing GPHA2 and GPHB5, leading to overexpression and secretion of CGH from the liver of these animals. […] The hypertrophy was apparent in the inner cortical layers, the zona fasciculata and the zona reticularis. Similarly, mice were exposed to CGH through intraperitoneal injection of recombinant CGH protein alone, recombinant CGH protein along with the glucocorticoid Dexamethasone (Dex), Dex alone, or PBS alone daily for two weeks.
Each group consisted of eight female C57BL6 mice. 7.5×10^11 particles each of GPHA2- and GPHB5-expressing adenovirus were administered by tail vein injection to the experimental group, while 1.5×10^11 particles of adenovirus expressing a parental vector alone were administered to the control group. Animals were sacrificed on day 20 following the injection and tissues were evaluated by a pathologist.

[12] = test system: LPS-induced mild endotoxemia mouse model; assay: LPS-induced mild endotoxemia mouse model, serum cytokines by ELISA; type: in vivo, C57B1/6 mice; settings: for effect on serum IL-6 levels / effect on serum TNFα levels: 2 mg/kg of the monomer, data not shown
Experimental: An in vivo experiment was designed to examine the effect of CGH in a mouse model of LPS-induced mild endotoxemia. This model mimics acute endotoxemia/sepsis by challenging mice with a low, non-lethal dose of bacterial endotoxin (lipopolysaccharide, LPS). Serum is collected at various timepoints (1-8 hours) after intraperitoneal LPS injection and analyzed for altered expression of a wide variety of pro- and anti-inflammatory cytokines and acute phase proteins that mediate the inflammatory response. The model provides a means to assess the potential anti-inflammatory effects of therapeutic candidates during a robust inflammatory response. To initially assess the model, we measured proinflammatory cytokines in a pilot experiment to collect reference data for the model.
C57B1/6 mice (Charles River Laboratories; 5 mice/group) were treated i.p. with PBS, 0.2 mg/kg CGH in PBS, or 2 mg/kg CGH in PBS 1 hour prior to LPS challenge. The mice were then challenged with 25 ug of LPS i.p. and bled at 1 hour and 4 hours after LPS injection. Serum was analyzed for TNFα (1 hour) and IL-6 (4 hours) levels by ELISA.
To determine if CGH would potentiate the effect of a sub-maximal dose of glucocorticoid, groups of 10 C57B1/6 mice each were treated i.p. with PBS, 0.15 or 1.5 mg/kg Dex, 2 mg/kg CGH, or a combination of CGH and low or high doses of Dex, 1 hour prior to injection of 25 ug LPS i.p. As shown in TABLE 3 (Expt #2), either 2 mg/kg CGH or 1.5 mg/kg Dex treatment alone (1 hour prior to LPS) caused a significant drop in serum TNFα levels at 1 hour, as observed in previous experiments. The effects of CGH administered in conjunction with Dex on inhibition of TNFα production were greater than either dose of Dex alone.

[13] = test system: neutrophils infiltrating the ears; assay: Neutrophil infiltration in ears of DTH mice, anti-Gr-1 immunohistochemistry and histomorphometry; type: in vivo, C57B1/6 mice; settings: anti-Gr-1 staining, DTH experiment #1
Experimental: Ears from mice in DTH experiment #1 were analyzed by immunohistochemistry to assess which cell types were most affected by CGH treatment. Ears were fixed in Zinc/Tris buffer (2.3 mM calcium acetate/31.6 mM zinc acetate/36.7 mM zinc chloride in 0.1M Tris-HCL buffer, pH 7.4) for 24 hours at room temperature and stained with antibodies specific for CD4, CD8, CD11c, and Gr-1 (neutrophils). […] Ears were stained using a TechMate 500 autoimmunostainer (Biotech/Ventana) MIP protocol with some modifications. After drying the slides for 1 hour at 60° C., the sections were stained with a rat anti-mouse Gr-1 mAb (clone 7/4, Serotec, isotype rat IgG2a, used at 1.25 ug/ml final dilution), overnight at 4° C. This step was followed, after a wash, by biotinylated rabbit anti-rat IgG secondary antibody (Dako, used at 10 ug/ml in PBS with 2% normal rabbit serum and 2% nonfat dry milk) for 45 min. The sections were then washed and treated with HP Block (1.5% H2O2 in 50% methanol) 3 times, 7 min each, followed by 25 min in avidin-biotin complex, 3 times of 4 min each in DAB (Diaminobenzidine), then with Methyl green for 10 min.
Histomorphometry was performed to obtain the average pixel density of neutrophils per unit length (1 mm) present in the ear samples. […]

[14] = test system: thymus; set-up: species or system C57B1/6 mice; settings: mouse, in vivo
Excerpt: Since the receptor for CGH, TSH-R, is expressed by the adrenal glands, there was concern that the anti-inflammatory effects observed might be an indirect effect of increasing endogenous corticosteroid production in CGH-treated mice. One well-established side effect of increasing either exogenous or endogenous corticosteroid levels is substantial atrophy of the thymus, as the developing T cells are induced to undergo apoptosis. Therefore, the thymuses of the CGH and Dex-treated mice in the DTH experiments were analyzed. […] Thus, CGH seems to be mediating its anti-inflammatory effects in a manner distinct from that of exgenous glucocorticoids like Dex.

[15] = 2 mg/kg CGH 1 hour prior to LPS, Expt #1

Sequence of thyroid-stimulating hormone (TSH) receptor (human) (P16473 21-764): as the sequence (P16473 21-764) above

CGH-biotin (biotinylated corticotroph-derived glycoprotein hormone) (from UniProt Q96T91 24-129; Q86YW7 25-130) (ligand)
FL-2 MFI [1]: 9.1 MFI
FL-2 MFI [2]: 12.9 MFI
FL-2 MFI [3]: 11.9 MFI
FL-2 MFI [4]: 56.4 MFI
FL-2 MFI [5]: 4.9 MFI
FL-2 MFI [6]: 8.7 MFI

B1: Corticotroph-derived glycoprotein hormone (CGH), purified recombinant heterodimer, Q96T91 24-129; Q86YW7 25-130 (ligand)
chain 1: QEAVIPGCHLHPFNVTVRSDRQGTCQGSHVAQACVGHCESSAFPSRYSVLVASGYRHNITSVSQCCTISGLKKVKVQLQCVGSRREELEIFTARACQCDMCRLSRY
chain 2: T1 sequence
modifications: here or on the partner: one N-linked glycosylation on the GPHB5 subunit (site not stated); two N-linked glycosylations on the GPHA2 subunit (sites not given)
CRE-driven luciferase reporter induction (cAMP-mediated) in NCI-H295R human adrenal cortex cells [7]: 15 to 40 fold

B2: glycoprotein hormone alpha2 (GPHA2) (ligand)
chain: B1 chain 1
modifications: two N-linked glycosylations (sites not given)
notes: Subunit co-expressed with GPHB5 in CHO cells; also called Zsig51; zsig51
binding result [8]: binds

B3: CGH: heterodimeric protein hormone of alpha subunit GPHA2 (SEQ ID NO:3) and beta subunit GPHB5 (SEQ ID NO:6) (protein, listed as Homo sapiens)
alpha: B1 chain 1
beta: T1 sequence
dose-dependent induction of luciferase activity compared with 10 μM forskolin [9]: equal to or higher than that induced by 10 μM forskolin
levels that stimulate release of free fatty acids (FFA) [10]: sub-nanomolar
molar concentration stimulating release of FFA, lower compared to TSH ([10]; compared to TSH): 10 fold
histomorphological changes of the inner adrenal cortical cells [11]: profound hypertrophy and uniformly finely, foamy vacuolization
increase of serum IL-6 levels at the 4 hour time point [12, 15]: about 70%
reduction of the TNFα induction at the 1 hour time point [12, 15]: about 60%
number of neutrophils infiltrating the ears compared to the PBS-treated controls [13]: clear reduction
relative proportion of each thymocyte subset compared with the PBS-treated group [14]: not significantly different

B4: zlut1: monomer of CGH tested alone; not defined further, presumably the GPHB5 beta subunit (protein, UniProt Q86YW7 25-130, looked up)
Glycoprotein hormone beta-5: T1 sequence
effect on serum IL-6 levels [12]: neither of these monomers had any effect
effect on serum TNFα levels [12]: neither of these monomers had any effect

B5: zsig51: alpha subunit of CGH, glycoprotein hormone alpha2, previously called Zsig51; tested as monomer (protein)
chain: B1 chain 1
effect on serum IL-6 levels [12]: neither of these monomers had any effect
effect on serum TNFα levels [12]: neither of these monomers had any effect
